Test results from patent publication US20210230273A1 (Alexion, published 2021).

Legend:
cell surface CD200 [1] = biological target: T1, cell surface CD200 (human, UniProt P41217 31-278); test: flow cytometry, inhibition of labelled CD200R-Fc binding to CD200+ Raji cells; n = 1
T1 construct: whole, on cells; also called CD200 on CD200 expressing Raji cells; CD200+ Raji cells
T1 sequence (looked up): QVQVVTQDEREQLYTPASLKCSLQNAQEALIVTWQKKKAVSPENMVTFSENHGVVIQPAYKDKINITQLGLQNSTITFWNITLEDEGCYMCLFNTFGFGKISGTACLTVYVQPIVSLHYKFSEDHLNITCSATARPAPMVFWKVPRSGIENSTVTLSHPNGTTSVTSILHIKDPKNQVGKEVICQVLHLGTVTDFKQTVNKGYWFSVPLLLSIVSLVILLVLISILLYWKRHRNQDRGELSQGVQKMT
Source text: Next, the abilities of the newly-engineered anti-CD200 antibodies to antagonize CD200R were compared with that of samalizumab using CD200+ Raji cells. […] Binding of labeled CD200R-Fc was detected by flow cytometry.

cell surface CD200 [2] = biological target: T1, cell surface CD200; test: whole-blood CD200 receptor occupancy by flow cytometry, T cells (CD3+); unlabelled antibody incubated overnight, free CD200 against total CD200 (1B2-AF647)
Experimental: (§1) Whole blood (including sodium heparin as anticoagulant) was added at 250 μL/FACs tube and sealed. Tubes were incubated at 25° C. in a temperature-controlled cabinet overnight to allow therapeutic antibody binding.
(§2) FACS Antibody Staining: Cells were blocked with Fc blocking reagent for 30 min. Red blood cells were lysed with hemolytic buffer; remaining cells were spun 800×g for 5 minutes, and the resulting cell pellet was washed twice with PBS. After final wash, cell pellets were resuspended into 200 μL PBS. Cells were stained with a fixable Live/Dead dye for 20 minutes protected from light, and then neutralized and washed with FACS buffer. After the final wash the cells were resuspended in 100 μL wash with FcR block. Labeled antibody cocktail mixes were prepared CD3-PE/CD19-FITC/Alexa-647 or CD3-PE/CD19-FITC/1B2-647 in blocking buffer as well as appropriate controls (single color and FMO). The appropriate amount of antibody was added and incubated with cells protected from light for 30 minutes at room temperature. […]
(§3) FACS Analysis: Data was acquired on an automated cell analyzer (BD Fortessa) by gating on lymphocytes, and single live cells followed by B cell (CD19+-FITC) and T cells (CD3-PE) populations. […] Percent receptor occupancy was calculated from the MFI (median fluorescence intensity) according to the following formula: […]

cell surface CD200 [3] = biological target: T1, cell surface CD200; test: whole-blood CD200 receptor occupancy by flow cytometry, B cells (CD19+); unlabelled antibody incubated overnight, free CD200 against total CD200 (1B2-AF647)
Experimental: as §1, §2, §3

B1: TPP-1143 (antibody, human IgG2, kappa, V domains shown)
VH: QVQLVQSGAEVKKPGASVKVSCKASGYSFTDYIILWVRQAPGQRLEWMGHIDPYYGSSNYNLKFKGRVTITRDTSASTAYMELSSLRSEDTAVYYCGRSKRDYFDYWGQGTLVTVSS
VL: DIQMTQSPSSLSASVGDRVTITCKASQDINSYLSWFQQKPGKAPKSLIYRANRLVDGVPSRFSGSGSGTDFTLTISSLQPEDFGTYYCLQYDEFPYTFGQGTKLEIKR
notes: mAb with human G2G4 Fc (effectorless); also called TPP-11143 (as printed once)
Cell surface CD200 [1]
  EC50: 0.186 nM
Cell surface CD200 [2]
  EC50 (read off the curve): ~4 ng/mL
Cell surface CD200 [3]
  EC50 (read off the curve): ~4 ng/mL
